Laboratory results: US20140213513A1 (Sanofi, priority 2012, published 2014)
*1 amine or outer side, *2 acyl side, *3 side chain or, on linkers, in order; H or OH if unused. Where no end group is shown, it is not given here. Side-chain parts run from the residue outwards. [ ]: non-standard residue; d: D form. The star is where a group is joined. γGlu = O=C(O)[C@H](CCC(=O)[*:2])N[*:1]; Stearoyl = CCCCCCCCCCCCCCCCCC(=O)*; Palmitoyl = CCCCCCCCCCCCCCCC(=O)*; Aib = CC(C)(N)C(=O)O

Key:
Experiment in all cases: cell-based or functional assay
human GIP receptor = molecular target: T1, human GIP receptor (human, UniProt P48546 22-466)
T1 sequence (looked up): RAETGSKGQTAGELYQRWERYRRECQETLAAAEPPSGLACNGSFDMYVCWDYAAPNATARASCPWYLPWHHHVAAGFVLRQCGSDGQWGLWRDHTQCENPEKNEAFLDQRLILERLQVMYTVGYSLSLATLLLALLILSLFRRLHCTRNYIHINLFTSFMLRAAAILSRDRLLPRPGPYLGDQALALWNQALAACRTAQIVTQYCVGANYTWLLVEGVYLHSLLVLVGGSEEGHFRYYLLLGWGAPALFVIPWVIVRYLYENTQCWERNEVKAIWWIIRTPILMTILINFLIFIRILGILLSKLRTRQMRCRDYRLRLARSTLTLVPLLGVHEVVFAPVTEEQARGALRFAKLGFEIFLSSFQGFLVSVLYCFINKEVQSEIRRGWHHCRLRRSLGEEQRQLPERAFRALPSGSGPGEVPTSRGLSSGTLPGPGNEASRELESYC

human glucagon receptor = human glucagon receptor (human, UniProt P47871 26-477)
human GLP-1 receptor = human GLP-1 receptor (human, UniProt P43220 24-463)

Sequence of human glucagon receptor (P47871 26-477): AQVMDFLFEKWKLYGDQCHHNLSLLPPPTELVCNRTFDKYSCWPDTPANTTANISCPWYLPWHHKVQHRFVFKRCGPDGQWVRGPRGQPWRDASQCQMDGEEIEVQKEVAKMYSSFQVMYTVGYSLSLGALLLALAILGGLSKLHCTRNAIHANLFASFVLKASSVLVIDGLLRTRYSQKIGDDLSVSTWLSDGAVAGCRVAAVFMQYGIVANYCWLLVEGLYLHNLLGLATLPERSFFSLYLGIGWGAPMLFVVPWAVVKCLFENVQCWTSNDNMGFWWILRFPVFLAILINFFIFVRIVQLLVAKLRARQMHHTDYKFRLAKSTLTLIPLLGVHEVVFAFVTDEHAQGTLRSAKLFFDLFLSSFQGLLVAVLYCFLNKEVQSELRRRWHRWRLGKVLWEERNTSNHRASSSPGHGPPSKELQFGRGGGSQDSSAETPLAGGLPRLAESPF

B1: exendin-4 peptide analogue SEQ ID NO: 31 (peptide)
peptide: Y[Aib]QGTFTSDLSIQK([γGlu-Stearoyl])DEQRAKEFIEWLKAGGPSSGAPPPS-NH2
modifications: N-terminus assumed
SMILES: CCCCCCCCCCCCCCCCCC(=O)N[C@@H](CCC(=O)NCCCC[C@H](NC(=O)[C@H](CCC(N)=O)NC(=O)[C@@H](NC(=O)[C@H](CO)NC(=O)[C@H](CC(C)C)NC(=O)[C@H](CC(=O)O)NC(=O)[C@H](CO)NC(=O)[C@@H](NC(=O)[C@H](Cc1ccccc1)NC(=O)[C@@H](NC(=O)CNC(=O)[C@H](CCC(N)=O)NC(=O)C(C)(C)NC(=O)[C@@H](N)Cc1ccc(O)cc1)[C@@H](C)O)[C@@H](C)O)[C@@H](C)CC)C(=O)N[C@@H](CC(=O)O)C(=O)N[C@@H](CCC(=O)O)C(=O)N[C@@H](CCC(N)=O)C(=O)N[C@@H](CCCNC(=N)N)C(=O)N[C@@H](C)C(=O)N[C@@H](CCCCN)C(=O)N[C@@H](CCC(=O)O)C(=O)N[C@@H](Cc1ccccc1)C(=O)N[C@H](C(=O)N[C@@H](CCC(=O)O)C(=O)N[C@@H](Cc1c[nH]c2ccccc12)C(=O)N[C@@H](CC(C)C)C(=O)N[C@@H](CCCCN)C(=O)N[C@@H](C)C(=O)NCC(=O)NCC(=O)N1CCC[C@H]1C(=O)N[C@@H](CO)C(=O)N[C@@H](CO)C(=O)NCC(=O)N[C@@H](C)C(=O)N1CCC[C@H]1C(=O)N1CCC[C@H]1C(=O)N1CCC[C@H]1C(=O)N[C@@H](CO)C(N)=O)[C@@H](C)CC)C(=O)O
- EC50 hGIP R (human GIP receptor): 0.0131 nM
- EC50 hGLUC R (human glucagon receptor): 0.0041 nM
- EC50 hGLP-1 R (human GLP-1 receptor): 0.0148 nM

B2: exendin-4 peptide analogue SEQ ID NO: 27 (peptide)
peptide: Y[Aib]QGTFTSDLSIQK([γGlu-Palmitoyl])DKRAA[Aib]LFIEWLKAGGPSSGAPPPS-NH2
modifications: N-terminus assumed
SMILES: CCCCCCCCCCCCCCCC(=O)N[C@@H](CCC(=O)NCCCC[C@H](NC(=O)[C@H](CCC(N)=O)NC(=O)[C@@H](NC(=O)[C@H](CO)NC(=O)[C@H](CC(C)C)NC(=O)[C@H](CC(=O)O)NC(=O)[C@H](CO)NC(=O)[C@@H](NC(=O)[C@H](Cc1ccccc1)NC(=O)[C@@H](NC(=O)CNC(=O)[C@H](CCC(N)=O)NC(=O)C(C)(C)NC(=O)[C@@H](N)Cc1ccc(O)cc1)[C@@H](C)O)[C@@H](C)O)[C@@H](C)CC)C(=O)N[C@@H](CC(=O)O)C(=O)N[C@@H](CCCCN)C(=O)N[C@@H](CCCNC(=N)N)C(=O)N[C@@H](C)C(=O)N[C@@H](C)C(=O)NC(C)(C)C(=O)N[C@@H](CC(C)C)C(=O)N[C@@H](Cc1ccccc1)C(=O)N[C@H](C(=O)N[C@@H](CCC(=O)O)C(=O)N[C@@H](Cc1c[nH]c2ccccc12)C(=O)N[C@@H](CC(C)C)C(=O)N[C@@H](CCCCN)C(=O)N[C@@H](C)C(=O)NCC(=O)NCC(=O)N1CCC[C@H]1C(=O)N[C@@H](CO)C(=O)N[C@@H](CO)C(=O)NCC(=O)N[C@@H](C)C(=O)N1CCC[C@H]1C(=O)N1CCC[C@H]1C(=O)N1CCC[C@H]1C(=O)N[C@@H](CO)C(N)=O)[C@@H](C)CC)C(=O)O
- EC50 hGIP R (human GIP receptor): 0.0826 nM
- EC50 hGLUC R (human glucagon receptor): 0.0389 nM
- EC50 hGLP-1 R (human GLP-1 receptor): 0.0147 nM

B3: exendin-4 peptide analogue SEQ ID NO: 26 (peptide)
peptide: Y[Aib]QGTFTSDLSIQK([γGlu-Palmitoyl])EKRAV[Aib]EFIEWLKAGGPSSGAPPPS-NH2
modifications: N-terminus assumed
SMILES: CCCCCCCCCCCCCCCC(=O)N[C@@H](CCC(=O)NCCCC[C@H](NC(=O)[C@H](CCC(N)=O)NC(=O)[C@@H](NC(=O)[C@H](CO)NC(=O)[C@H](CC(C)C)NC(=O)[C@H](CC(=O)O)NC(=O)[C@H](CO)NC(=O)[C@@H](NC(=O)[C@H](Cc1ccccc1)NC(=O)[C@@H](NC(=O)CNC(=O)[C@H](CCC(N)=O)NC(=O)C(C)(C)NC(=O)[C@@H](N)Cc1ccc(O)cc1)[C@@H](C)O)[C@@H](C)O)[C@@H](C)CC)C(=O)N[C@@H](CCC(=O)O)C(=O)N[C@@H](CCCCN)C(=O)N[C@@H](CCCNC(=N)N)C(=O)N[C@@H](C)C(=O)N[C@H](C(=O)NC(C)(C)C(=O)N[C@@H](CCC(=O)O)C(=O)N[C@@H](Cc1ccccc1)C(=O)N[C@H](C(=O)N[C@@H](CCC(=O)O)C(=O)N[C@@H](Cc1c[nH]c2ccccc12)C(=O)N[C@@H](CC(C)C)C(=O)N[C@@H](CCCCN)C(=O)N[C@@H](C)C(=O)NCC(=O)NCC(=O)N1CCC[C@H]1C(=O)N[C@@H](CO)C(=O)N[C@@H](CO)C(=O)NCC(=O)N[C@@H](C)C(=O)N1CCC[C@H]1C(=O)N1CCC[C@H]1C(=O)N1CCC[C@H]1C(=O)N[C@@H](CO)C(N)=O)[C@@H](C)CC)C(C)C)C(=O)O
- EC50 hGIP R (human GIP receptor): 0.0053 nM
- EC50 hGLUC R (human glucagon receptor): 0.3 nM
- EC50 hGLP-1 R (human GLP-1 receptor): 0.0176 nM

B4: exendin-4 peptide analogue SEQ ID NO: 29 (peptide)
peptide: Y[Aib]EGTFTSDLSIQK([γGlu-Stearoyl])ESKAA[Aib]EFIEWLKAGGPSSGAPPPS-NH2
modifications: N-terminus assumed
SMILES: CCCCCCCCCCCCCCCCCC(=O)N[C@@H](CCC(=O)NCCCC[C@H](NC(=O)[C@H](CCC(N)=O)NC(=O)[C@@H](NC(=O)[C@H](CO)NC(=O)[C@H](CC(C)C)NC(=O)[C@H](CC(=O)O)NC(=O)[C@H](CO)NC(=O)[C@@H](NC(=O)[C@H](Cc1ccccc1)NC(=O)[C@@H](NC(=O)CNC(=O)[C@H](CCC(=O)O)NC(=O)C(C)(C)NC(=O)[C@@H](N)Cc1ccc(O)cc1)[C@@H](C)O)[C@@H](C)O)[C@@H](C)CC)C(=O)N[C@@H](CCC(=O)O)C(=O)N[C@@H](CO)C(=O)N[C@@H](CCCCN)C(=O)N[C@@H](C)C(=O)N[C@@H](C)C(=O)NC(C)(C)C(=O)N[C@@H](CCC(=O)O)C(=O)N[C@@H](Cc1ccccc1)C(=O)N[C@H](C(=O)N[C@@H](CCC(=O)O)C(=O)N[C@@H](Cc1c[nH]c2ccccc12)C(=O)N[C@@H](CC(C)C)C(=O)N[C@@H](CCCCN)C(=O)N[C@@H](C)C(=O)NCC(=O)NCC(=O)N1CCC[C@H]1C(=O)N[C@@H](CO)C(=O)N[C@@H](CO)C(=O)NCC(=O)N[C@@H](C)C(=O)N1CCC[C@H]1C(=O)N1CCC[C@H]1C(=O)N1CCC[C@H]1C(=O)N[C@@H](CO)C(N)=O)[C@@H](C)CC)C(=O)O
- EC50 hGIP R (human GIP receptor): 0.013 nM
- EC50 hGLUC R (human glucagon receptor): 15 nM
- EC50 hGLP-1 R (human GLP-1 receptor): 0.0072 nM

B5: exendin-4 peptide analogue SEQ ID NO: 28 (peptide)
peptide: Y[Aib]HGTFTSDLSKQK([γGlu-Palmitoyl])EKRAA[Aib]EFIEWLKNTGPSSGAPPPS-NH2
modifications: N-terminus assumed
SMILES: CCCCCCCCCCCCCCCC(=O)N[C@@H](CCC(=O)NCCCC[C@H](NC(=O)[C@H](CCC(N)=O)NC(=O)[C@H](CCCCN)NC(=O)[C@H](CO)NC(=O)[C@H](CC(C)C)NC(=O)[C@H](CC(=O)O)NC(=O)[C@H](CO)NC(=O)[C@@H](NC(=O)[C@H](Cc1ccccc1)NC(=O)[C@@H](NC(=O)CNC(=O)[C@H](Cc1c[nH]cn1)NC(=O)C(C)(C)NC(=O)[C@@H](N)Cc1ccc(O)cc1)[C@@H](C)O)[C@@H](C)O)C(=O)N[C@@H](CCC(=O)O)C(=O)N[C@@H](CCCCN)C(=O)N[C@@H](CCCNC(=N)N)C(=O)N[C@@H](C)C(=O)N[C@@H](C)C(=O)NC(C)(C)C(=O)N[C@@H](CCC(=O)O)C(=O)N[C@@H](Cc1ccccc1)C(=O)N[C@H](C(=O)N[C@@H](CCC(=O)O)C(=O)N[C@@H](Cc1c[nH]c2ccccc12)C(=O)N[C@@H](CC(C)C)C(=O)N[C@@H](CCCCN)C(=O)N[C@@H](CC(N)=O)C(=O)N[C@H](C(=O)NCC(=O)N1CCC[C@H]1C(=O)N[C@@H](CO)C(=O)N[C@@H](CO)C(=O)NCC(=O)N[C@@H](C)C(=O)N1CCC[C@H]1C(=O)N1CCC[C@H]1C(=O)N1CCC[C@H]1C(=O)N[C@@H](CO)C(N)=O)[C@@H](C)O)[C@@H](C)CC)C(=O)O
- EC50 hGIP R (human GIP receptor): 0.0368 nM
- EC50 hGLUC R (human glucagon receptor): 0.0048 nM
- EC50 hGLP-1 R (human GLP-1 receptor): 0.0583 nM

B6: exendin-4 peptide analogue SEQ ID NO: 30 (peptide)
peptide: Y[Aib]EGTFTSDLSKQK([γGlu-Palmitoyl])DKRAAQDFIEWLKNGGPSSGAPPPS-NH2
modifications: N-terminus assumed
SMILES: CCCCCCCCCCCCCCCC(=O)N[C@@H](CCC(=O)NCCCC[C@H](NC(=O)[C@H](CCC(N)=O)NC(=O)[C@H](CCCCN)NC(=O)[C@H](CO)NC(=O)[C@H](CC(C)C)NC(=O)[C@H](CC(=O)O)NC(=O)[C@H](CO)NC(=O)[C@@H](NC(=O)[C@H](Cc1ccccc1)NC(=O)[C@@H](NC(=O)CNC(=O)[C@H](CCC(=O)O)NC(=O)C(C)(C)NC(=O)[C@@H](N)Cc1ccc(O)cc1)[C@@H](C)O)[C@@H](C)O)C(=O)N[C@@H](CC(=O)O)C(=O)N[C@@H](CCCCN)C(=O)N[C@@H](CCCNC(=N)N)C(=O)N[C@@H](C)C(=O)N[C@@H](C)C(=O)N[C@@H](CCC(N)=O)C(=O)N[C@@H](CC(=O)O)C(=O)N[C@@H](Cc1ccccc1)C(=O)N[C@H](C(=O)N[C@@H](CCC(=O)O)C(=O)N[C@@H](Cc1c[nH]c2ccccc12)C(=O)N[C@@H](CC(C)C)C(=O)N[C@@H](CCCCN)C(=O)N[C@@H](CC(N)=O)C(=O)NCC(=O)NCC(=O)N1CCC[C@H]1C(=O)N[C@@H](CO)C(=O)N[C@@H](CO)C(=O)NCC(=O)N[C@@H](C)C(=O)N1CCC[C@H]1C(=O)N1CCC[C@H]1C(=O)N1CCC[C@H]1C(=O)N[C@@H](CO)C(N)=O)[C@@H](C)CC)C(=O)O
- EC50 hGIP R (human GIP receptor): 0.0163 nM
- EC50 hGLUC R (human glucagon receptor): 1.45 nM
- EC50 hGLP-1 R (human GLP-1 receptor): 0.005 nM
